Laboratory results taken from patent publication US20200222503A1 (published 2020).

B1: murine CD172a(SIRPα)-Fc-CD40L chimeric protein (Fc fusion, UniProt P97797 32-373, looked up)
chain: KELKVTQPEKSVSVAAGDSTVLNCTLTSLLPVGPIRWYRGVGPSRLLIYSFAGEYVPRIRNVSDTTKRNNMDFSIRISNVTPADAGIYYCVKFQKGSSEPDTEIQSGGGTEVYVLAKPSPPEVSGPADRGIPDQKVNFTCKSHGFSPRNITLKWFKDGQELHPLETTVNPSGKNVSYNISSTVRVVLNSMDVNSKVICEVAHITLDRSPLRGIANLSNFIRVSPTVKVTQQSPTSMNQVNLTCRAERFYPEDLQLIWLENGNVSRNDTPKNLTKNTDGTYNYTSLFLVNSSAHREDVVFTCQVKHDQQPAITRNHTVLGFAHSSDQGSMQTFPDNNATHNWNHRRLDKVEEEVNLHEDFVFIKKLKRCNKGEGSLSLLNCEEMRRQFEDLVKDITLNKEEKKENSFEMQRGDEDPQIAAHVVSEANSNAASVLQWAKKGYYTMKSNLVMLENGKQLTVKREGLYYVYTQVTFCSNREPSSQRPFIVGLWLKPSSGSERILLKAANTHSSSQLCEQQSVHLGGVFELQAGASVFVNVTEASQVIHRVGFSSFGLLKL
notes: extracellular domain; also called mCD172a(SIRPα)-Fc-CD40L; not shown: Fc linker of the murine construct is not specified
B2: recombinant murine CD40 protein (receptor, UniProt P27512 24-193, looked up)
chain: VTCSDKQYLHDGQCCDLCQPGSRLTSHCTALEKTQCHPCDSGEFSAQWNREIRCHQHRHCEPNQGLRVKKEGTAESDTVCTCKEGQHCTSKDCEACAQHTPCIPGFGVMEMATETTDTVCHPCPVGFFSNQSSLFEKCYPWTSCEDKNLEVLQKGTSQTNVICGLKSRMR
notes: also called mCD40
B3: murine PD-1-Fc-OX40L chimeric protein (Fc fusion, UniProt Q02242 25-169, looked up)
chain: LEVPNGPWRSLTFYPAWLTVSEGANATFTCSLSNWSEDLMLNWNRLSPSNQTEKQAAFCNGLSQPVQDARFQIIQLPNRHDFHMNILDTRRNDSGIYLCGAISLHPKAKIEESPGAELVVTERILETSTRYPSPSPKPEGRFQGMSSSPAKDPPIQRLRGAVTRCEDGQLFISSYKNEYQTMEVQNNSVVIKCDGLYIIYLKGSFFQEVKIDLHFREDHNPISIPMLNDGRRIVFTVVASLAFKDKVYLTVNAPDTLCEHLQINDGELIVVQLTPGYCAPEGSYHSTVNQVPL
notes: extracellular domain; also called mPD-1-Fc-OX40L; not shown: Fc linker of the murine construct is not specified
B4: OX40-His (Example 11) (receptor, not shown: small tags and cut ends)
chain: VTARRLNCVKHTYPSGHKCCRECQPGHGMVSRCDHTRDTLCHPCETGFYNEAVNYDTCKQCTQCNHRSGSELKQNCTPTQDTVCRCRPGTQPRQDSGYKLGVDCVPCPPGHFSPGNNQACKPWTNCTLSGKQTRHPASDSLDAVCEDRSLLATLLWETQRPTFRPTTVQSTTVWPRTSELPSPPTLVTPEGP
B5: PD-1_IgG4_OX40L (1) (Fc fusion)
chain: LDSPDRPWNPPTFSPALLVVTEGDNATFTCSFSNTSESFVLNWYRMSPSNQTDKLAAFPEDRSQPGQDCRFRVTQLPNGRDFHMSVVRARRNDSGTYLCGAISLAPKAQIKESLRAELRVTERRAEVPTAHPSPSPRPAGQFQSKYGPPCPSCPAPEFLGGPSVFLFPPKPKDTLMISRTPEVTCVVVDVSQEDPEVQFNWYVDGVEVHNAKTKPREEQFNSTYRVVSVLTVLHQDWLSGKEYKCKVSSKGLPSSIEKTISNATGQPREPQVYTLPPSQEEMTKNQVSLTCLVKGFYPSDIAVEWESNGQPENNYKTTPPVLDSDGSFFLYSRLTVDKSSWQEGNVFSCSVMHEALHNHYTQKSLSLSLGKIEGRMDQVSHRYPRIQSIKVQFTEYKKEKGFILTSQKEDEIMKVQNNSVIINCDGFYLISLKGYFSQEVNISLHYQKDEEPLFQLKKVRSVNSLMVASLTYKDKVYLNVTTDNTSLDDFHVNGGELILIHQNPGEFCVL

Legend:
[1] = target: T1, murine CD40 on CHOK1 cells (murine, UniProt P27512 20-289); assay: flow cytometry on CHOK1/mCD40 cells
T1 construct: whole, on cells; also called mCD40; CHOK1/mCD40
T1 sequence (P27512 20-289): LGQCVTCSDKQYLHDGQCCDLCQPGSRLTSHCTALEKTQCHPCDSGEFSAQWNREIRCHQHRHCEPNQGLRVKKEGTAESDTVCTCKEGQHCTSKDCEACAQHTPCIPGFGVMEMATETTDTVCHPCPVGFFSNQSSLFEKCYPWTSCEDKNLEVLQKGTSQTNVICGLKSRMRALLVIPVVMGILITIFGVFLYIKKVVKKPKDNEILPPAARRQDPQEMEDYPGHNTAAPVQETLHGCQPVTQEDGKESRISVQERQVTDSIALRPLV
Source text: Cells were collected, washed, and stained with antibodies for the detection of the chimeric protein binding by flow cytometry.

[2] = target: B1; assay: SPR
[3] = target: T2, FcRn-His (Example 11) (Mus musculus (Mouse), UniProt Q61559 22-297; P01887 21-119); assay: SPR, BioRad ProteOn XPR 360, His-tagged target on chip
T2 construct: copies: 1 + 1
T2 sequence (alpha): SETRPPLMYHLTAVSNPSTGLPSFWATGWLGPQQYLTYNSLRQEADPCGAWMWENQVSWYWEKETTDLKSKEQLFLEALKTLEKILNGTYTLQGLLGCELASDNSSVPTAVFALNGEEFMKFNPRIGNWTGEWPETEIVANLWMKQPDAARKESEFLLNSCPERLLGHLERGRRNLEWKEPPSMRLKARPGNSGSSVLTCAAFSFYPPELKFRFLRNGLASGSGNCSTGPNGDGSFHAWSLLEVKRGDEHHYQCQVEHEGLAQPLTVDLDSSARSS
T2 sequence (beta): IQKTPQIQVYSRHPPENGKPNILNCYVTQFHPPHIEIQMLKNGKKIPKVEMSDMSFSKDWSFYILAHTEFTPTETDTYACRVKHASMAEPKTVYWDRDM

[4] = target: B3; assay: as above
[5] = target: PD-L1 on CHO cells (CHO-PD-L1) (Homo sapiens (Human), UniProt Q9NZQ7 19-290); assay: FACS on CHO-PD-L1 cells
Chain of PD-L1 on CHO cells (CHO-PD-L1) (Q9NZQ7 19-290 limits assumed, form in doubt): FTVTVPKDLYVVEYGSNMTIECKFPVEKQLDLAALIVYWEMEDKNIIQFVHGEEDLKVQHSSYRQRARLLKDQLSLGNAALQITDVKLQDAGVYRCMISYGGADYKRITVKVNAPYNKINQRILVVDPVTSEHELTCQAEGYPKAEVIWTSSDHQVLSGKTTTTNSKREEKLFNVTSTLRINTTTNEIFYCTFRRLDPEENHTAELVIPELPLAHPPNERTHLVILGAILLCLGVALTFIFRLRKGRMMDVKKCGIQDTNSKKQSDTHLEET

[6] = target: T3, OX40 on HeLa cells (HeLa-OX40) (Homo sapiens (Human), UniProt P43489 29-277); assay: FACS on HeLa-OX40 cells
T3 sequence: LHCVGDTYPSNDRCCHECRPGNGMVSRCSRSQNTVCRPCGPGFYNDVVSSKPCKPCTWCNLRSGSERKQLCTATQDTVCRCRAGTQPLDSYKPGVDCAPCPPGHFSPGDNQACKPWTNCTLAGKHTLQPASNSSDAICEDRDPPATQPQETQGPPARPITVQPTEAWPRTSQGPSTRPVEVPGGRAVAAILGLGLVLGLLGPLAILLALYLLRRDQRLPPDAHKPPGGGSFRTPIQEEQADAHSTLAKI

In the case of B1, the EC50 [1] is reported as 20.2 nM.

With B2 the Kd [2] was 0.756 nM.

B3 showed a Kd [3] of 55.6 nM, a koff [3] of 0.00262 s⁻¹ and a kon [3] of 47200 M⁻¹ s⁻¹.

B4 was tested, and the Kd [4] was 9.62 nM.

Work on B5 yielded an EC50 [5] of 27 nM and an EC50 [6] of 6 nM.
